{
  "source": "patent US20240382567A1",
  "about": "“Long-acting PTH compound treatments” (Ascendis Pharma Bone Diseases A/S, priority 2021, published 2024)",
  "origin": "cited, not measured here",
  "molecules": {"B1": {"name": "PTH(1-84): daily injection of PTH(1-84), approved as adjunct to calcium and vitamin D to control hypocalcemia in hypoparathyroidism (protein, UniProt P01270 32-115, looked up)", "Parathyroid hormone": "SVSEIQLMHNLGKHLNSMERVEWLRKKLQDVHNFVALGAPLAPRDAGSQRPRKKEDNVLVESHEKSLGEADKADVNVLTKAKSQ", "modifications": "Parathyroid hormone", "notes": "daily injection of PTH(1-84), approved as adjunct to calcium and vitamin D to control hypocalcemia in hypoparathyroidism"}},
  "test_system": "patients with hypoparathyroidism",
  "note": "Like-named read-outs stand apart in the source and are kept apart here.",
  "data": [
    {"molecule": "B1", "values": [
      {"measurement": "Total hip BMD increase from baseline", "setting": "3 years, P=0.04", "value": 2.10, "unit": "%"},
      {"measurement": "Lumbar spine BMD increase", "setting": "at 24 months, P=0.01", "value": 3.2, "unit": "%"},
      {"measurement": "Distal one third radius BMD mean loss", "setting": "study conclusion (year 6), P=0.0001 vs baseline", "value": 4.4, "unit": "%"},
      {"measurement": "Femoral neck BMD increase", "setting": "year 3, P=0.04", "value": 2.6, "unit": "%"},
      {"measurement": "Distal one third radius T-score", "setting": "year 6", "value": "−0.28"},
      {"measurement": "Femoral neck BMD versus baseline", "setting": "year 6", "value": "not different from baseline"},
      {"measurement": "Lumbar spine BMD mean gain from baseline", "setting": "year 6, P=0.004", "value": 3.8, "unit": "%"},
      {"measurement": "Total hip BMD increase from baseline", "setting": "year 6, P=0.02", "value": 2.4, "unit": "%"}
    ]}
  ]
}
